Measurements: paper PMC11154707, “Polymer-based antibody mimetics (iBodies) target human PD-L1 and function as a potent immune checkpoint blocker” (The Journal of Biological Chemistry, 2024)

B1: iBody 1 (HPMA copolymer carrying WL12, ATTO488 and biotin) (other)
chain: YANPHLPWSWXXXCG
modifications: ClAc on the N-terminus (peptide cyclised, macrocyclic); MeAla at 2; Hyp at 7; Trp(Me) at 10; MeNle at 11 and 12; Orn at 13; C-terminal amide; amino group of the peptide bound to the HPMA copolymer
B2: ATTO488-WL12 (peptide)
chain: YANPHLPWSWXXXCG
modifications: ClAc on the N-terminus (peptide cyclised, macrocyclic); MeAla at 2; Hyp at 7; Trp(Me) at 10; MeNle at 11 and 12; Orn at 13; C-terminal amide; ATTO488 fluorophore (site not told in the text shown)

Legend:
[1] = target: T1, human PD-L1, membrane-bound, on hPD-L1-transfected CHO cells (human, UniProt Q9NZQ7 19-290); assay: flow cytometry on cells; dilution series on hPD-L1-transfected and wild-type CHO cells in PBS, 30 min at 4 °C; ATTO488 fluorescence; EC50 from MFI by 4-parameter logistic fit; conditions: one partner purified
T1 construct: The catalogue suffix -CH may mean a C-terminal His tag (surmise); also called CHO PD-L1; source: CHO cells, stably transfected (pCMV3-full-length human PD-L1, hygromycin selection), on cells
T1 sequence (Q9NZQ7 19-290): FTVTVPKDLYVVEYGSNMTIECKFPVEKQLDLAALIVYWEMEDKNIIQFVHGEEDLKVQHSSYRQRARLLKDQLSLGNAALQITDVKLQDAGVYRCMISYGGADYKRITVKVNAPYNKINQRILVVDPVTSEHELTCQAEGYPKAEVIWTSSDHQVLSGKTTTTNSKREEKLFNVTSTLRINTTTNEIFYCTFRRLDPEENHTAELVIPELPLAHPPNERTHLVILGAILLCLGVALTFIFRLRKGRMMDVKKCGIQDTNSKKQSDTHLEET

[2] = target: T2, recombinant human PD-L1 extracellular domain (residues 19–239), His-tagged (human, UniProt Q9NZQ7 19-239); assay: ELISA; 100 ng/well rhPD-L1 coated directly on the plate (TBS, 1 h RT), casein block; dilution series of biotinylated binder in TBS with 0.1% Tween-20, 1 h RT; neutravidin-HRP, chemiluminescence; EC50 by 4-parameter logistic fit; conditions: both partners purified
T2 construct: programmed death-ligand 1 (PD-L1/CD274/B7-H1), human, extracellular domain residues 19-239, subcloned from pCMV3-full-length human PD-L1 into pTT28; probably removed on secretion (surmise); also called rhPD-L1; recombinant extracellular hPD-L1; source: HEK293-6E, transiently transfected, secreted, purified (Ni-NTA Agarose, dialysis); not shown: His8, C-terminal, kept
T2 sequence (Q9NZQ7 19-239): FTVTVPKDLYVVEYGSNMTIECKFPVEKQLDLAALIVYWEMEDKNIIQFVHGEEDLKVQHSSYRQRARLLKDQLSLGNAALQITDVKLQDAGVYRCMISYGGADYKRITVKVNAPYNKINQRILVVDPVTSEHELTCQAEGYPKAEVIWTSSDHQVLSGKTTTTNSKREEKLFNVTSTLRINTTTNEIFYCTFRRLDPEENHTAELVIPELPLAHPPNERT

[3] = target: T2, recombinant human PD-L1 extracellular …; assay: ELISA; 100 ng/well rhPD-L1 coated directly on the plate, casein block; dilution series of ATTO488-WL12 in TBS with 0.1% Tween-20, 1 h RT; read by ATTO488 fluorescence intensity; EC50 by 4-parameter logistic fit; conditions: both partners purified

| Binder | EC50 [1] [nM] | EC50 [2] [nM] | EC50 [3] [nM] |
| --- | --- | --- | --- |
| B1 | 6.6 | 0.29 |  |
| B2 | 270 |  | 5.3 |
